According to PMC6702328, “A VDAC1-Derived N-Terminal Peptide Inhibits Mutant SOD1-VDAC1 Interactions and Toxicity in the SOD1 Model of ALS” (Frontiers in Cellular Neuroscience, 2019):

Tests used:
[1] = target: recombinant full-length murine VDAC1 (murine) (UniProt Q60932)
[2] = target: recombinant full-length murine VDAC1 (murine) (UniProt Q60932); remark: listed apart in the source

Chain of recombinant full-length murine VDAC1 (murine) (Q60932 14-296): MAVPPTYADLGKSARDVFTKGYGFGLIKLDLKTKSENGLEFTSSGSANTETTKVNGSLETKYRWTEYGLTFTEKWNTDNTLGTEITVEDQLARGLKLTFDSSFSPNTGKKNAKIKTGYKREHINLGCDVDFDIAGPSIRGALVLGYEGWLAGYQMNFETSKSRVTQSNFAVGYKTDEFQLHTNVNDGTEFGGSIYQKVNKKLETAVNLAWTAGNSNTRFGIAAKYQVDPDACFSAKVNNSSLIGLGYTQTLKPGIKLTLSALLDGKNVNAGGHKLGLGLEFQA

Substance	inhibition of channel conductance of bilayer-reconstituted VDAC1 [1] [%]	survival of mESC-derived SOD1^G93A-expressing motor neurons with the (1-20)-N-Ter-Antp peptide, 10 μM, 96 h [2] [fold]
human mutant SOD1^G85R (enzyme)	40	
human mutant SOD1^G93A (enzyme)	57	2
